Assay in all cases: cell-based or functional assay
The target of assay [1] is VP16AD-CfEcRCDEF chimeric polypeptide (Choristoneura fumiferana).
For assay [2], the target named is VP16AD-MmRXRDEF chimeric polypeptide (Mus musculus).
Assay [3] deals with VP16AD-CfUSPDEF chimeric polypeptide (Choristoneura fumiferana).
Assay [4] concerns the target VP16AD-DmEcRCDEF chimeric polypeptide (Drosophila melanogaster).
Assay [5] has as its target Full length MmRXR (mouse Mus musculus RXR alpha) (Mus musculus) (UniProt P28700).
Assay [6] addresses T1, B42AD:MmRXR-DEF fusion (Mus musculus).
T1 sequence: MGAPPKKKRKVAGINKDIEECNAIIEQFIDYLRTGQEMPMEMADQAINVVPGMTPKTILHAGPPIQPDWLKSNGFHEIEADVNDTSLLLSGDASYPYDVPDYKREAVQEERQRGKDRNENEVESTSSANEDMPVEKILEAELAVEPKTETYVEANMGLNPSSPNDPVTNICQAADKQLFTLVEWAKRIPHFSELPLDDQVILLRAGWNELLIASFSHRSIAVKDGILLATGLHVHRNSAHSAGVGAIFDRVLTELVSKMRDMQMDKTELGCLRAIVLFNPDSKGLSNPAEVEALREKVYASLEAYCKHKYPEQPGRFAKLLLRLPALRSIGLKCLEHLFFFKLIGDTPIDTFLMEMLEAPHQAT

The results in this text go back to patent US20020119521A1.

In assay [1], “Gal4DBD-CfUSPDEF chimeric polypeptide (receptor)” showed a Mean Fold Activation Through N-(2-ethyl-3-methoxybenzoyl)-N'-(3,5-dimethylbenzoyl)-N'-t-butylhydrazine; pGAL4RELuc reporter, 3T3 cells of 3 fold; a Mean Fold Activation Through N-(2-ethyl-3-methoxybenzoyl)-N'-(3,5-dimethylbenzoyl)-N'-t-butylhydrazine; pGAL4RELuc reporter, 293 cells of 2 fold; a Mean Fold Activation with 50 µM N-(2-ethyl-3-methoxybenzoyl)-N'-(3,5-dimethylbenzoyl)-N'-t-butylhydrazine; pGAL4RELuc reporter, CHO cells of 2 fold.
Consider “Gal4DBD-CfEcRDEF chimeric polypeptide (receptor)”, for which, in assay [2], the Mean Fold Activation Through N-(2-ethyl-3-methoxybenzoyl)-N'-(3,5-dimethylbenzoyl)-N'-t-butylhydrazine; pGAL4RELuc reporter, 3T3 cells is 1120 fold; the Mean Fold Activation Through N-(2-ethyl-3-methoxybenzoyl)-N'-(3,5-dimethylbenzoyl)-N'-t-butylhydrazine; pGAL4RELuc reporter, 293 cells was 125 fold; the Mean Fold Activation with 50 µM N-(2-ethyl-3-methoxybenzoyl)-N'-(3,5-dimethylbenzoyl)-N'-t-butylhydrazine; pGAL4RELuc reporter, CHO cells turned out to be 267 fold; the Mean Fold Induction at 1.0 µM Concentration of Muristerone A; switch 1.1 in 3T3 cells was 1 fold. In assay [2], this molecule registered a Mean Fold Induction at 1.0 µM Concentration of N'-(3,4-(1,2-ethylenedioxy)-2-methylbenzoyl)-N'-(3,5-dimethylbenzoyl)-N'-tert-butylhydrazine; switch 1.1 in 3T3 cells of 601 fold, a Mean Fold Induction at 1.0 µM Concentration of N-(2-ethyl-3-methoxybenzoyl)-N'-(3,5-dimethylbenzoyl)-N'-tert-butylhydrazine; switch 1.1 in 3T3 cells of 116 fold, a Mean Fold Induction at 1.0 µM Concentration of Ponasterone A; switch 1.1 in 3T3 cells of 1 fold and a ligand concentration at which transactivation was initiated (non-steroid ligands) of less than 1 µM. Further, the ligand concentration at which transactivation was initiated (steroid ligands) in assay [2] was determined as 50 µM. Also, in assay [3], the Mean Fold Activation Through N-(2-ethyl-3-methoxybenzoyl)-N'-(3,5-dimethylbenzoyl)-N'-t-butylhydrazine; pGAL4RELuc reporter, 3T3 cells is 2 fold; the Mean Fold Activation Through N-(2-ethyl-3-methoxybenzoyl)-N'-(3,5-dimethylbenzoyl)-N'-t-butylhydrazine; pGAL4RELuc reporter, 293 cells is 2 fold; the Mean Fold Activation with 50 µM N-(2-ethyl-3-methoxybenzoyl)-N'-(3,5-dimethylbenzoyl)-N'-t-butylhydrazine; pGAL4RELuc reporter, CHO cells is 2 fold.
In assay [4], “Gal4DBD-MmRXRDEF chimeric polypeptide (receptor)” yielded a Mean Fold Activation Through N-(2-ethyl-3-methoxybenzoyl)-N'-(3,5-dimethylbenzoyl)-N'-t-butylhydrazine; pGAL4RELuc reporter, 3T3 cells of 269 fold; a Mean Fold Activation Through N-(2-ethyl-3-methoxybenzoyl)-N'-(3,5-dimethylbenzoyl)-N'-t-butylhydrazine; pGAL4RELuc reporter, 293 cells of 3 fold; a Mean Fold Activation with 50 µM N-(2-ethyl-3-methoxybenzoyl)-N'-(3,5-dimethylbenzoyl)-N'-t-butylhydrazine; pGAL4RELuc reporter, CHO cells of 312 fold. In assay [1], the Mean Fold Activation Through N-(2-ethyl-3-methoxybenzoyl)-N'-(3,5-dimethylbenzoyl)-N'-t-butylhydrazine; pGAL4RELuc reporter, 3T3 cells was 47 fold; the Mean Fold Activation Through N-(2-ethyl-3-methoxybenzoyl)-N'-(3,5-dimethylbenzoyl)-N'-t-butylhydrazine; pGAL4RELuc reporter, 293 cells was determined as 17 fold; the Mean Fold Activation with 50 µM N-(2-ethyl-3-methoxybenzoyl)-N'-(3,5-dimethylbenzoyl)-N'-t-butylhydrazine; pGAL4RELuc reporter, CHO cells turned out to be 85 fold; the Mean Fold Induction at 1.0 µM Concentration of Muristerone A; switch 1.3 in 3T3 cells was found to be 1 fold. In assay [1], this molecule returned a Mean Fold Induction at 1.0 µM Concentration of N'-(3,4-(1,2-ethylenedioxy)-2-methylbenzoyl)-N'-(3,5-dimethylbenzoyl)-N'-tert-butylhydrazine; switch 1.3 in 3T3 cells of 54 fold, a Mean Fold Induction at 1.0 µM Concentration of N-(2-ethyl-3-methoxybenzoyl)-N'-3,5-dimethylbenzoyl)-N'-tert-butylhydrazine; switch 1.3 in 3T3 cells of 71 fold and a Mean Fold Induction at 1.0 µM Concentration of Ponasterone A; switch 1.3 in 3T3 cells of 1 fold.
In assay [5], “Drosophila melanogaster EcR with a modified DNABD fused to VP16AD (DmVgRXR system, Invitrogen) (receptor)” gave a Mean Fold Activation Through N-(2-ethyl-3-methoxybenzoyl)-N'-(3,5-dimethylbenzoyl)-N'-t-butylhydrazine; pIND(SP1)LacZ reporter, 3T3 cells of 21 fold; a Mean Fold Activation Through N-(2-ethyl-3-methoxybenzoyl)-N'-(3,5-dimethylbenzoyl)-N'-t-butylhydrazine; pIND(SP1)LacZ reporter, 293 cells of 21 fold; a Mean Fold Activation with 50 µM N-(2-ethyl-3-methoxybenzoyl)-N'-(3,5-dimethylbenzoyl)-N'-t-butylhydrazine; pIND(SP1)LacZ reporter, CHO cells of 14 fold.
In assay [5], “Truncated CfEcR comprising a partial A/B domain and the complete CDEF domains, fused to VP16AD (CfVgRXR) (receptor)” yielded a Mean Fold Activation Through N-(2-ethyl-3-methoxybenzoyl)-N'-(3,5-dimethylbenzoyl)-N'-t-butylhydrazine; pIND(SP1)LacZ reporter, 3T3 cells of 19 fold; a Mean Fold Activation Through N-(2-ethyl-3-methoxybenzoyl)-N'-(3,5-dimethylbenzoyl)-N'-t-butylhydrazine; pIND(SP1)LacZ reporter, 293 cells of 12 fold; a Mean Fold Activation with 50 µM N-(2-ethyl-3-methoxybenzoyl)-N'-(3,5-dimethylbenzoyl)-N'-t-butylhydrazine; pIND(SP1)LacZ reporter, CHO cells of 27 fold.

B1: LexA:CfEcRDEF fusion (receptor)
chain: MKALTARQQEVFDLIRDHISQTGMPPTRAEIAQRLGFRSPNAAEEHLKALARKGVIEIVSGASRGIRLLQEEEEGLPLVGRVAAGEPLLAQQHIEGHYQVDPSLFKPNADFLLRVSGMSMKDIGIMDGDLLAVHKTQDVRNGQVVVARIDDEVTVKRLKKQGNKVELLPENSEFKPIVVDLRQQSFTIEGLAVGVIRNGDWLPECVVPETQCAMKRKEKKAQKEKDKLPVSTTTVDDHMPPIMQCEPPPPEAARIHEVVPRFLSDKLLETNRQKNIPQLTANQQFLIARLIWYQDGYEQPSDEDLKRITQTWQQADDENEESDTPFRQITEMTILTVQLIVEFAKGLPGFAKISQPDQITLLKACSSEVMMLRVARRYDAASDSVLFANNQAYTRDNYRKAGMAYVIEDLLHFCRCMYSMALDNIHYALLTAVVIFSDRPGLEQPQLVEEIQRYYLNTLRIYILNQLSGSARSSVIYGKILSILSELRTLGMQNSNMCISLKLKNRKLPPFLEEIWDVADMSHTQPPPILESPTNL
In the case of B1, the fold induction of the LacZ reporter in a yeast two-hybrid assay with GS-E in assay [6] came to 1800 fold.
